Measurements: US9234893B2, “Marker comprising anti-CK8/18 complex autoantibody and its use for diagnosing cancer” (Korea Research Institute of Bioscience and Biotechnology, priority 2011, dated 2016)
Entries after “also recorded” stand apart in the source; their conditions may differ.

T1: CK8 (Homo sapiens, UniProt P05787)
T1 construct: made in house; host or cells: E. coli BL21 (DE3)
T1 sequence (P05787 1-483): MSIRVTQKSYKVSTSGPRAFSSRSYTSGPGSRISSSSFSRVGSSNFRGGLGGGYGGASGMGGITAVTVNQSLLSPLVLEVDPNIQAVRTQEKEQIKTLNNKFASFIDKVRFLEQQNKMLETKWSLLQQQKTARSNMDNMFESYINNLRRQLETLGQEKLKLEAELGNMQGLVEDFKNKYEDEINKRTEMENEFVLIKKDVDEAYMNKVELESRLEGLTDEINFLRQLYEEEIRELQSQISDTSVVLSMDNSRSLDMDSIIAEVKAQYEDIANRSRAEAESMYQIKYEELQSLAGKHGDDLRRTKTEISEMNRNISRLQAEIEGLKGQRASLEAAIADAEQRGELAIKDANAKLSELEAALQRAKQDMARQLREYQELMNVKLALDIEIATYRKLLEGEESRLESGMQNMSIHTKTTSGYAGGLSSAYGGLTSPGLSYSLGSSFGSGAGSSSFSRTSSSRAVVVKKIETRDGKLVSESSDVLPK

T2: CK18 (Homo sapiens, UniProt P05783)
T2 construct: made in house; host or cells: E. coli BL21 (DE3)
T2 sequence (P05783 1-430): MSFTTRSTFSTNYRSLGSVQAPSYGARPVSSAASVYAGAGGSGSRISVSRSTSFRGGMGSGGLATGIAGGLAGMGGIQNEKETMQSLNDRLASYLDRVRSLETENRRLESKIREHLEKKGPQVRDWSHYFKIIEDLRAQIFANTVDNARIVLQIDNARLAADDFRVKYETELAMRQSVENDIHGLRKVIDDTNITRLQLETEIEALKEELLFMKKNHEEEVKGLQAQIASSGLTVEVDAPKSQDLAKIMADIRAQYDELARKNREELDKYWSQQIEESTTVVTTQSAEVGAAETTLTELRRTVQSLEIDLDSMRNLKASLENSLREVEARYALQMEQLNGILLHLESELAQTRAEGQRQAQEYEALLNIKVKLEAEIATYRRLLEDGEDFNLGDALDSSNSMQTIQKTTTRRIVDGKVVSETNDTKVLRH

T3: CK8/18 complex (Homo sapiens, UniProt P05783+P05787)
T3 construct: made in house; host or cells: E. coli BL21 (DE3)
T3 sequence (P05787 1-483): T1 sequence (P05787 1-483)
T3 sequence (P05783 1-430): T2 sequence (P05783 1-430)

T4: CK8/18 mixture (CK8/18 complex) (Homo sapiens, UniProt P05783+P05787)
T4 construct: made in house; host or cells: E. coli BL21 (DE3)
T4 sequence (P05787 1-483): T1 sequence (P05787 1-483)
T4 sequence (P05783 1-430): T2 sequence (P05783 1-430)

B1: TAB-K94 antibody: Monoclonal autoantibody against cytokeratin 8/18 complex from hybridoma KCTC 11799BP; heavy chain SEQ ID NO. 1, light chain SEQ ID NO. 2 (antibody, V domains shown)
VH: XVXLXQSGPGILQPSQTLSLTCSFSGFSLSTFGMGVGWIRQPSGKGLEWLAHIWWDDDKYYNPALKSRLTISKDTSKNQVFLKIANVDTADTATYYCARIGGYYGSSSWYFDVWGTGTTVTVSSESQSFPNVRSS
VL: DIVITQTPSSLSASLGGKVTITCKASQDINKYIAWYQHKPGKGPRLLIHYTSTLQPGIPSRFSGSGSGRDYSFSISNLEPEDIATYYCLQYDNLLTFGGGTKLEIKRADAAPTVS
modifications: not fully specified; a heavy chain variable region; a light chain variable region

Assays:
TAB-K94 antibody = test: ELISA with selected phage as coating antigen and TAB-K94 antibody as primary antibody; type: binding, mouse; conditions: 100 ng/100 μl TAB-K94 antibody, absorbance at 450 nm
Procedure: In order to examine the reactivity of the selected TAB-K94 antibody-specific phages against TAB-K94 antibody, ELISA was performed using the phage as a coating antigen and TAB-K94 antibody as a primary antibody. The detailed method is as follows:
[…] was diluted in 100 μl of a coating solution (0.1 M sodium bicarbonate buffer, pH 8.6) and added to each well of 96-well Maxisorp ELISA plate. For antigen coating, the phage-added plate was stored at 4° C. for 16 hours or longer. After phage coating, 300 μl of skim milk solution (5% (w/v) skim milk/TBST) was added, and reacted at room temperature for 1 hour to block the remaining sites after antigen coating. After blocking, the plate was washed with TBST (TBS containing 0.1% Tween-20) twice, and 100 ng/100 μl of TAB-K94 antibody was added thereto, and reacted at room temperature for 90 minutes. […] The secondary antibody was also reacted at room temperature for 90 minutes, and the plate was washed with TBST six times. Color development was performed using a TMB solution (Pierce) as a substrate for HRP. Absorbance was measured at 450 nm to quantify the antigen-antibody reaction.

[1] = system: liver cancer cell line HepG2; test: Flow cytometry after intracellular staining of cell lines with TAB-K94 antibody; type: cell-based
Procedure: (§1) The reactivity of autoantibodies against cancer cells was examined by flow cytometric analysis of cancer cell line after intracellular staining following the fixation and permeabilization. The method is described in detail as follows. A liver cancer cell line, HepG2 or Hepa1c1c7 at 70-80% confluency was treated with trypsin, detached from the cell culture plate, and washed with PBS. 100 μl of Cytofix/Cytoperm solution (BD) per 2×10^5 cells was added thereto, and the cells were incubated at 4° C. for 20 minutes for fixation and permeabilization. After incubation, 1 ml of Cytowash/Cytoperm solution (BD) was added and mixed well. Then the mixture was centrifuged at 1700 rpm for 5 minutes and the cell pellet was washed. 50 μl of a primary antibody solution (B cell hybridoma cell culture medium or purified primary antibody solution) was added to the washed sample, and the incubation was performed at 4° C. for 40 minutes. After incubation, the cells were washed three times, and treated with anti-mouse Igs-RPE (DaKo) at 4° C. for 40 minutes. Then, the cells were washed an additional three times, and the cell pellet was resuspended in 300 μl of PBS, followed by analysis using a FACSCaliber (BD). Mean values of fluorescence corresponding to antibody reactions were obtained and compared. 50 μl of mouse antibody free DMEM medium was added to the control group showing no antibody reaction.
(§2) The reactivity of TAB-K94 autoantibodies against various cancer cell lines was examined by flow cytometric analysis after intracellular staining of various cancer cell lines in the same manner as in Example 1 (FIG. 3A).

HT22 neuronal cells = test: as above; type: cell-based; conditions: normal cell line
Procedure: as §1, §2

Chang liver cells = test: as above; type: cell-based; conditions: normal cell line
Procedure: as §1, §2

[2] = system: breast cancer cell line MCF-7; test: as above; type: cell-based
Procedure: as §1, §2

[3] = system: MCF-7 or HT29 cells having the suppressed CK8 or CK18 expression; test: Flow cytometry of cells with siRNA-suppressed CK8 or CK18 expression; type: cell-based; conditions: 72 hours after siRNA treatment
Procedure: As siRNAs for the suppression of CK8 and CK18 expression, siRNAs (CK8 Sense: 5′-CCG CAG UUA CGG UCA ACC A(dTdT)-3′ (SEQ ID NO. 23), Antisense: 5′-UGG UUG ACC GUA ACU GCG G(dTdT)-3′ (SEQ ID NO. 24), CK18 Sense: 5′-CUC ACA GAG CUG AGA CGU A(dTdT)-3′ (SEQ ID NO. 25), Antisense: 5′-UAC GUC UCA GCU CUG UGA C(dTdT)-3′ (SEQ ID NO. 26)) provided by Bioneer were used, and injected into MCF-7 or HT29 cells using Lipofectamine 2000 (Invitrogen). 72 hours after siRNA treatment, the cells were collected to extract total RNA, and 5 μg of RNA was used as a template to synthesize cDNA. The synthesized cDNA was used as a template to perform polymerase chain reaction using primers having specificity to CK8 and CK18. The resulting product was analyzed on a 1% agarose gel.
The cells showing the suppressed CK8 and CK18 expression by siRNA in RT-PCR were subjected to flow cytometry in the same manner as in Examples 1 and 3, in order to examine their TAB-K94 antibody reaction. […] However, the previous studies reported that […] form a complex to exert intracellular function. Therefore, it can be assumed that variation in the expression of one of the two proteins affects that of the other protein, and this assumption was examined by Western blotting. After treatment of siRNA for CK8 or CK18, Western blotting was performed using specific antibody to each.

CK8 [4] = molecular target: T1, CK8; test: ELISA with recombinant protein as coating antigen; type: binding
[5] = system: HepG2, MCF-7 and HT29 cells; test: Intracellular localization by fluorescence staining and confocal laser microscopy; type: cell-based; conditions: primary antibody 5 μg/ml
Procedure: In order to examine intracellular localization of the TAB-K94 antigen expression, the corresponding cells were cultured on a coverslip, and then intracellular staining was performed, followed by observation using confocal laser microscopy (Zeiss). […] The stained coverslip was treated with a mounting solution containing DAPI, and placed on a slide. […] It was confirmed that the TAB-K94 antibody-specific antigen is a CK8/18 complex, and thus the cells were stained with CK8 and CK18-specific antibodies to compare with the localization of TAB-K94 antibody reaction.

[6] = system: breast cancer cell line MCF-7; test: Western blotting of cell lysate and serum-free cell culture medium with TAB-K94 antibody; type: binding; conditions: MCF-7 cell lysate and cell culture medium, 50 μg protein
Procedure: Expression of TAB-K94 antibody-specific antigen proteins was examined in various cancer cell lines by Western blotting (FIG. 5A). The detailed method is as follows. The cells to be analyzed were collected and dissolved in PBS containing RIPA buffer (0.1% (w/v) SDS, 0.1% (w/v) sodium deoxycholate, 1.0% (v/v) NP40, protease inhibitor cocktail (Roche)) to be used as protein analysis samples. Protein quantification was performed by Bradford assay. Each 50 μg of the prepared protein samples was run on 10% reduced SDS-PAGE, and transferred onto a PVDF membrane. […] As a result, the TAB-K94 antibody-specific antigens were found in the liver cancer cell lines including Hep3B, PLC/PRF/5, and SK-Hep1 as a band having a molecular weight of 45 kDa.
For induction of antibodies in the individual, a specific protein should be released into the blood. That is, extracellular release of proteins expressed within the cells supports the induction of autoantibodies. Therefore, the presence of antigens was examined in the cell culture medium of cell lines expressing TAB-K94 antibody-specific antigens by Western blotting. Each 10 ml of serum-free cell culture medium was collected, and concentrated, and each 50 μg of the quantified protein was run on 10% reduced SDS-PAGE. Western blotting was performed in the same manner as above.

CK18 [7] = molecular target: T2, CK18; test: ELISA with recombinant protein as coating antigen; type: binding
CK8/18 complex = molecular target: T3, CK8/18 complex; test: ELISA with recombinant protein as coating antigen; type: binding; conditions: mixture of the two proteins as coating antigen
[8] = system: human breast cancer tissues; test: Immunohistostaining of human cancer tissues using TAB-K94 antibody; conditions: in particular invasive front
From the text: (§3) Based on the reactivity against cancer cells, expression of TAB-K94 antibody-reactive antigen was examined by immunohistostaining of human liver cancer tissues and breast cancer tissues using TAB-K94 antibodies.

[9] = system: human liver cancer tissues; test: as above; conditions: liver cancer tissues (data not shown)
From the text: as §3

[10] = molecular target: T4, CK8/18 mixture (CK8/18 complex); test: Western blotting of recombinant proteins with TAB-K94 antibody; type: binding; conditions: mixture of CK8 and CK18
From the text: (§4) ID NO. 33), CK18 [NT] ID NO. 34), [NT] ID NO.

CK8 [11] = molecular target: T1, CK8; test: as above; type: binding; conditions: CK8 run alone
From the text: as §4

CK18 [12] = molecular target: T2, CK18; test: as above; type: binding; conditions: CK18 run alone
From the text: as §4

Molecule	reactivity against TAB-K94 antibody in ELISA (TAB-K94 antibody)	reactivity measured by flow cytometry after intracellular staining [1]	reactivity measured by flow cytometry after intracellular staining (HT22 neuronal cells)	reactivity measured by flow cytometry after intracellular staining (Chang liver cells)	reactivity measured by flow cytometry after intracellular staining [2]	TAB-K94 antibody reaction after siRNA suppression of CK8 or CK18 [3]	reactivity in ELISA (CK8 [4])	intracellular localization of staining [5]	reactivity in Western blotting [6]	reactivity in ELISA (CK18 [7])	reactivity in ELISA (CK8/18 complex)	staining of tissue by immunohistochemistry [8]	staining of tissue by immunohistochemistry [9]	reactivity in Western blotting [10]	reactivity in Western blotting (CK8 [11])	reactivity in Western blotting (CK18 [12])
TLSHTRT (Thr-Leu-Ser-His-Thr-Arg-Thr) [K94p7]	no reactivity															
ISPDAHS (Ile-Ser-Pro-Asp-Ala-His-Ser) [K94p1]	high reactivity															
B1		High reactivity; also recorded: noticeably increased	lower reactivity	lower reactivity	High reactivity; also recorded: noticeably increased	reduced	not observed	strongly localized in the cell membrane	very high reactivity	not observed	the reactivity was observed	strong complete staining; also recorded: strong staining around cell membrane	hardly any distinct reaction; also recorded: no distinct reaction	showed reactivity	no reactivity	no reactivity
